This assay concerns the target S protein of SARS-CoV-1 on pseudotyped particles (SARS-CoV-1, UniProt P59594 14-1255). Briefly: cell-based or functional assay.

B1: IgG BU.7 (antibody, V domains shown)
VH: LEWGPGLVKPSETLSLTCTVSGGSISSINYYWVWIRQPPGKGLEWIGNINYSGTTNYNPSLKSRVTISVDTSKNQFSLKLSSVTAADTAVYYCARQTYYYDRRGYYRPEPIEHWGQGTLVTVSS
VL: ELVMTQSPSFLSASVGDRVTITCRASQDVRSFLHWYQQRPGKAPKLLIYAASMVSSEVPSRFSGSGSETDFTLTIDGLQPEDVATYFCQQTYDTPLTFGGGTAVDIK
For the molecule B1, the “neutralizing activity expressed as IC50 µg/ml (pseudovirus, luciferase)” value was 1.3 µg/mL.

B2: IgG BU.54 (antibody, V domains shown)
VH: LEWGPGLVKASQTLSLTCTVSGGSISSRNFYWSWIRQPGGKGLEWIGRIYTSGSTNYNPSLKSRVTISLDTSKSQFSLKLSSVTAADTAVYYCARGTFYYDRSGNGRLDPLDYWGQGTLVTVS
VL: ELVMTQSPSSLSASVGDRVTITCQASQDISNYLNWYQQKPGKAPKLLIYDASNLETGVPSRFSGSGFGTHFTLTISSLQPEDFATYYCQQHDNLVTFGGGTKVEIK
Turning to B2, the “neutralizing activity expressed as IC50 µg/ml (pseudovirus, luciferase)” value amounted to 0.4 µg/mL.

The values above are taken from patent US20260234220A1 (OSPEDALE SAN RAFFAELE S R L, published 2026).
